The text below walks through data of publication PMC2415180 (BMC Biotechnology, 2008).

The target of data set [1] is BChE/hSA fusion protein (recombinant human butyrylcholinesterase fused to human serum albumin) in the milk of transgenic goats (human) (UniProt P06276). The data set can be described thus: SEC + native gel or EMSA. In general terms: A gel shift assay detects complexes by their altered migration in electrophoresis.
The target in data set [2] is BChE/hSA fusion protein (recombinant human butyrylcholinesterase fused to human serum albumin) in the milk of transgenic mice (human) (UniProt P06276). The experiment in a line: SEC + native gel or EMSA.
The data set “SEC” concerns the molecule itself. The data set can be described thus: SEC.

As a reminder, the stoichiometry N is the number of molecules, sites or subunits per partner or assembly.

On to “BChE/hSA fusion protein (recombinant human butyrylcholinesterase fused to human serum albumin) in the milk of transgenic goats (from UniProt P06276 29-602; P02768 25-609) (enzyme)”, for which the stoichiometry N in data set [1] was found to be 2. Regarding “BChE/hSA fusion protein (recombinant human butyrylcholinesterase fused to human serum albumin) in the milk of transgenic mice (from UniProt P06276 29-602; P02768 25-609) (enzyme)”, the stoichiometry N in data set [2] was 2.

B1: recombinant human butyrylcholinesterase produced transgenically in goat milk, tetramer-enriched preparation (>70% tetramer) (enzyme, UniProt P06276 29-602, looked up)
chain: EDDIIIATKNGKVRGMNLTVFGGTVTAFLGIPYAQPPLGRLRFKKPQSLTKWSDIWNATKYANSCCQNIDQSFPGFHGSEMWNPNTDLSEDCLYLNVWIPAPKPKNATVLIWIYGGGFQTGTSSLHVYDGKFLARVERVIVVSMNYRVGALGFLALPGNPEAPGNMGLFDQQLALQWVQKNIAAFGGNPKSVTLFGESAGAASVSLHLLSPGSHSLFTRAILQSGSFNAPWAVTSLYEARNRTLNLAKLTGCSRENETEIIKCLRNKDPQEILLNEAFVVPYGTPLSVNFGPTVDGDFLTDMPDILLELGQFKKTQILVGVNKDEGTAFLVYGAPGFSKDNNSIITRKEFQEGLKIFFPGVSEFGKESILFHYTDWVDDQRPENYREALGDVVGDYNFICPALEFTKKFSEWGNNAFFYYFEHRSSKLPWPEWMGVMHGYEIEFVFGLPLERRDNYTKAEEILSRSIVKRWANFAKYGNPNETQNNSTSWPVFKSTEQKYLTLNTESTRIMTKLRAQQCRFWTSFFPKVLEMTGNIDEAEWEWKAGFHRWNNYMMDWKNQFNDYTSKKESCVGL
notes: also called tetramer-enriched BChE; BChE produced transgenically (>70% tetramer)
For the molecule B1, the “stoichiometry N” value in “SEC” was 4.
